In the DeepSol protein solubility set:

Assay: soluble on expression in E. coli; label from the status in PepcDB or PDB records

Sequence	soluble on expression in E. coli
MGSDKIHHHHHHMKIIKLRNNSPEFNYKMIVLARESRGIGQRELATLVETDQGNLSRIEKGAQTPVKDMIERISKALDYPVSFFRLQHSVYDFSKSYYRRKLKMPKKEIELSEAKINISKINIETLIRAVELPEPNYPTFDLSKDLSASACAIQLRKYWKLPHGRVENFTKVLEDNGVLVANIDFAGIEVDGHAILTENNLPIIFINKNITADRYRLTLAHELGHLCLHVGREIAEDRDVEQEAFMFAAELLTPEVEIAPDLCEVSIEKLKELKKYWKVSMGSLLKRAHVLKGVSDNQYKYLWQQMGNMGYKTVEPKELEFEKEKPKLLKEIIDAHLEELQYSEDELSELLGLKIQEFAKSYAPARPRLRVSKGKAR	not soluble
DERGEVVDGDKLIGALAMHLKNSHTLEKPLAVATVMSNLALEEFLAKAKIKLLRAGVGDKYVLEMMQKEGANFGGEQSGHLIFSDFAKTGDGLVSALQTMAFVLRSGERASRALNIFDLY	not soluble
GNGFDVENYKDKEIVIVAGGTGVSPVRGVVEYFAKNSKEAKSVTLIAGFKTPKDILFSEDFKEWKNNINIILTVDSAEGDSNFKEGLVTKYIPELKLQNVKEASAIVVGPPAMMRFSTQGLLDVGFKEENMWISQERKMCCGIGKCGHCKIDDVY	not soluble
FIKLPEFKLNYHNKSYRQYGRGFALQNTNFRPGSSGTLMLNNQKQIAGIYFGVLDFGEDVSLMSNIGVGQILRVPQKNNTRNR	not soluble
MTGKKTLSIVGASGYAGGEFLRLALSHPYLEVKQVTSRRFAGEPVHFVHPNLRGRTNLKFVPPEKLEPADILVLALPHGVFAREFDRYSALAPVLVDLSADFRLKDPELYRRYYGEHPRPDLLGRFVYAVPELYREALKGADWIAGAGCNATATLLGLYPLLKAGVLKPTPIFVTLLISTSAGGAEASPASHHPERAGSIRVYKPTGHRHTAEVVENLPGRPEVHLTAIATDRVRGILMTAQCFVQDGWSERDVWQAYREAYAGEPFIRLVKQKKGVHRYPDPRFVQGTNYADIGFELEEDTGRLVVMTAIDNLVKGTAGHALQALNVRMGWPETLGLDFPGLHP	soluble
MGSDKIHHHHHHMINQLMRSVDNLPAFPVTVIKVMDLLSRDDYSIAEVARVISFDQSITANILKVSNSAYFSFGRPIRTVLEAVARLGKENVIRAVQTAGISKFYKTTARGYVSVAADLWEHSVAVALMSQILSRRIYGREDSVLYSAALLHDVGKIIIGAYVYESLEKIQRVVDGRKCSFIEAEEEVIGINHAELGGKITGYWNLPEEICDAIAFHHRPDILDKNSVDMQWIVYLADQLCMMTGIGNGIDGLAYLGISEVLKKFNLREKDLETNMMNLMDDLRNARSILDMV	not soluble
MGSDKIHHHHHHAQQTSEVDLIDIAGGMEKLTELKVSDLGKTIRYIPLETTDSCLIGDFPNIKLLDDKIMVYNGKQCLLFDKETGKFICSVGHRGDDPEAYSSTCGYLNPKNQLLYFNRDPNQLVKYNQKGNFAGVITIPSPETSTGNIQINRPGMNGFVFSDSIIIGHYVGGLGQRCPSSVLYFSDKGNYIDTIPNIIPELGTGQVGDINNISVRKGFGLLEGIIQIQYNNGKQSICVPGYTALWKCNDEIRFKELFTDTIYTLKHNQLEKYIIFNTGKYYWPASERTLTDNNSDRIMISYAIENDKLLYFQFIRGLYTDKHILYNGIYDKNTKVTNIALAENNFVDDLTHFMPFTPSFLNEKGECASLVQAADILTWLEEHPEVKIEKELGVLKNLNEESNPVVVLVK	not soluble
MATTEQLANTTQKEPVIDLDQDSNMEIAHKIQNQTKRLPISEPANKNKNVTSKQNKETNRKTFEKSKRMATSTIQDRVLRTQKTRKDKESTTEKVNAILKKSAKQIKVREEEEGDDDLEDELTLYPSKRKMMVGSKNRKRTIKPNRDTIAEEQETDGEHGVKQRAFDPKQRHRQCPECLLLFSTPDKLKRHMKSHGDVPDVYCSLCNTPIKFKYNLRVHLEKCYDKMKLSLHDSMLSKVYPDFVRKLQEAAKNPVLPMPTLEGMPYEFTLKGVVGFDTSLDITKDLMLAKYEQKKQRELAGIDSDDSDELDYFDDFPDE	not soluble
